Reference: publication PMC9507969, “Visualizing maturation factor extraction from the nascent ribosome by the AAA-ATPase Drg1” (Nature Structural & Molecular Biology, 2022)
Changes are numbered by the printed parent chain.

What was measured:
Settings in all cases: both partners purified
[1] = target: T1, Nsa2 on the pre-60S particle (S. cerevisiae (endogenous in the yeast …, UniProt P40078 1-261)); assay: cryo-EM structure; purified Drg1 (1.75 mg/ml, 12 µM) mixed 1:1 with 200 nM export-competent Bud20-TAP pre-60S particles, 2 mM ATPγS, 10 minutes; particle-bound Drg1 and free Drg1 hexamers picked from the same dataset
T1 construct: Nsa2 of S. cerevisiae; only His20 to Lys74 seen as density; source: endogenous, on pre-60S particles purified via Bud20-TAP from S. cerevisiae
T1 sequence (looked up): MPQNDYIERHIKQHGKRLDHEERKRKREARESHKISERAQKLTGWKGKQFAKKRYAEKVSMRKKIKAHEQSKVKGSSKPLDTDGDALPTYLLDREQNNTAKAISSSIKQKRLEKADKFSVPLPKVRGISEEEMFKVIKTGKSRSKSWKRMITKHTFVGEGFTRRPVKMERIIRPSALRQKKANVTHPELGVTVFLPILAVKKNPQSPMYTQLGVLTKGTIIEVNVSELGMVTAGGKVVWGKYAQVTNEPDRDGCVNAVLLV

[2] = target: T2, Drg1EQ1 (E346Q), D1 Walker B variant, purified (S. cerevisiae, UniProt P32794 1-780, E346Q); assay: pull-down; GST-tagged bait on GSH-agarose beads; 80 µg Drg1 in 120 µl binding buffer (20 mM HEPES-KOH, 150 mM potassium acetate, 5 mM magnesium acetate, 0.1% Tween-20, 1 mM DTT, pH 6.8); 1 mM ATP or ATPγS or no nucleotide; 60 minutes, room temperature
T2 construct: Drg1 (AFG2) of S. cerevisiae with the D1 Walker B exchange E346Q; source: overexpressed in yeast as GST fusion, purified on GSH-agarose, eluted by Prescission protease cleavage
T2 sequence: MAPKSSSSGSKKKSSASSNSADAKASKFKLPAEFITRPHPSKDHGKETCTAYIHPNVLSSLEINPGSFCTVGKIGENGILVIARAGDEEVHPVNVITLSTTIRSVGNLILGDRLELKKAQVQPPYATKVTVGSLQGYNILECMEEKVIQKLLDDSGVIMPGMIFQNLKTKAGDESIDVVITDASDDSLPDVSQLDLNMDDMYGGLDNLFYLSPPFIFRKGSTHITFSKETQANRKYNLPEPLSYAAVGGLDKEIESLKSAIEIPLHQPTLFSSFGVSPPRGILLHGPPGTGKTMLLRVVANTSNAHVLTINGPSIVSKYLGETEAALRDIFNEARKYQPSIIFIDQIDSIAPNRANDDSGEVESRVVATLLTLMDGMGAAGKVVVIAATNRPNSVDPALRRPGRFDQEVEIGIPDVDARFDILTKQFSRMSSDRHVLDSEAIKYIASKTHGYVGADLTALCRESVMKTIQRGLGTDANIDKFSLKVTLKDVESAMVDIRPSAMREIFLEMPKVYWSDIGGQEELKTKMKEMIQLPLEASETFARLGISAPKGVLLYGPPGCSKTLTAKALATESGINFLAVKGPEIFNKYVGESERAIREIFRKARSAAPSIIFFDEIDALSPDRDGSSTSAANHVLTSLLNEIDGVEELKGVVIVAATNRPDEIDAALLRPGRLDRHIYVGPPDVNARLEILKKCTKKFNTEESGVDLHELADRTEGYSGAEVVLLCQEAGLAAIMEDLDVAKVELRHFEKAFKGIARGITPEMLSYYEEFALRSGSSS

[3] = target: T3, Drg1 (diazaborine resistance gene 1), wild type, purified (S. cerevisiae, UniProt P32794 1-780); assay: as above
T3 construct: Drg1 (AFG2), hexameric type-II AAA-ATPase of S. cerevisiae, wild type; Hexamer in the cryo-EM maps; also called DRG1 (AFG2); AAA-ATPase Drg1; source: overexpressed in yeast as GST fusion (CuSO4-induced), purified on GSH-agarose, eluted by Prescission protease cleavage
T3 sequence: T2 sequence with Q346E

B1: Mrt4 on the pre-60S particle (natural protein, UniProt P33201 1-236, looked up)
chain: MPRSKRSKLVTLAQTDKKGRENKERIFDEVREALDTYRYVWVLHLDDVRTPVLQEIRTSWAGSKLIMGKRKVLQKALGEKREEEYKENLYQLSKLCSGVTGLLFTDEDVNTVKEYFKSYVRSDYSRPNTKAPLTFTIPEGIVYSRGGQIPAEEDVPMIHSLEPTMRNKFEIPTKIKAGKITIDSPYLVCTEGEKLDVRQALILKQFGIAASEFKVKVSAYYDNDSSTVESTNINME
notes: Mrt4 of S. cerevisiae; source: endogenous, on pre-60S particles purified via Bud20-TAP from S. cerevisiae
binding result [1]: binds

B2: GST-Arx1 (natural protein, S. cerevisiae)
chain: MALAISHEDTQILLKDKNILQESVLNKYRTAGQIAQTALKYVTSLINDSYHSKTTQRQLTVPELCLLTDSFILTRLEQYYKNKVNERGIAIPTTIDIDQISGGWCPEIDDTQNLLNWNKGKDSTFASSVTGTLRPGDLVKITLGVHIDGYTSEVSHTMVIYPVDETKPILQPTGPLLGGKADAVAAAHIAMETVVALLACALTPEKLPASLGGTSSGITGQLIRTIVDTIARSYNCGVVPGSRVRRIRRFLAGQNEGIVAEREYKGVVWTESHQEADLLSNTDAKDLTVVDRGQSTPFTNVSAIPSDDFVVQSGEVYLIDLKMASLEHCTKKGLVTLETVDSYTGKSHKAGELIARPGAYVRDFAQTHILKLKTSRQLLTKIDKQGVYPFKLSHLSSNFPFVHENEEELQSLKKDLKSFRLGMSEISNNYLCVESPIQIARWVPWDHILKATNPNGNLSYDATSTLTLPGHELPLPKLGVSAIKLKSLMNSTKESISLPVARECNTIVLCDSSVSTTDRPELLRLTGGSKTCQPSWIHSQHELNPQDSIVQGIFQLATLAKDKRFGLLLKETQPMKQKSVETSNGGVEETMKM
notes: Arx1 of S. cerevisiae; not shown: GST, N-terminal, kept
binding result [2]: binds | binding result [3]: binds
